In patent publication US20140105889A1 (published 2014):

Molecular target: T1, human FcγRIIIa(F) (human, UniProt P08637 17-208, limits assumed)
T1 construct: also called FcgRIIIaF; FcγRIIIa allotype F158
Test: SPR (Biacore), captured antibody, FcγR analyte; bound amount relative to GpH7-B3/GpL16-k0 x100;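 further: receptor response divided by the antibody amount captured on the chip before comparison with the reference antibody, measured at 25 °C in HBS-EP+ running buffer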
Protocol: Interaction between each modified antibody and Fcγ receptor prepared in the manner described above was analyzed using the Biacore T100 (GE Healthcare), Biacore T200 (GE Healthcare), Biacore A100 or Biacore 4000. HBS-EP+ (GE Healthcare) was used for the running buffer, and measurements were carried out at 25° C. The chips used were chips in which antigen peptides, Protein A (Thermo Scientific), Protein A/G (Thermo Scientific) or Protein L (ACTIGEN or BioVision) were immobilized on the Series S Sensor Chip CM5 (GE Healthcare) or Series S Sensor Chip CM4 (GE Healthcare) by amine coupling, or chips in which preliminarily biotinylated antigen peptides were allowed to interact and then immobilized on the Series S Sensor Chip SA (certified) (GE Healthcare). The target antibodies were captured on these sensor chips, Fcγ receptor diluted with the running buffer was allowed to interact, followed by measurement of the amount of bound antibody. The amounts bound were compared between antibodies. However, since the amount of Fcγ receptor bound depends on the amount of captured antibody, the values used for comparison were first corrected by dividing the amount of Fcγ receptor bound by the captured amount of each antibody. Through reaction with 10 mM glycine-HCl at pH 1.5, the sensor chips were regenerated by washing off antibody captured on the sensor chips and used repeatedly.
Binding strength was evaluated according to the following method based on the results of analyzing the interaction with each FcγR. […] That value was then further multiplied by 100, and the resulting value was used as an indicator of relative binding activity to each FcγR.

T1 sequence (P08637 other isoform, or with tags, fused parts or gaps limits assumed): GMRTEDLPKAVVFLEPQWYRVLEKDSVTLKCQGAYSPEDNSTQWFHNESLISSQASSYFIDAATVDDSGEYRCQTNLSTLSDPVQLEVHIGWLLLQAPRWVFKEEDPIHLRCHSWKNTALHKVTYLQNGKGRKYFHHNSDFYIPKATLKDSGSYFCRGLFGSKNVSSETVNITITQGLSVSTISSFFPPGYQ

Row | Binder | relative binding activity
1 | GpH7-B3/GpL16-k0 with P329H introduced into GpH7-B3 (antibody, human IgG1, Anti-glypican-3 human IgG1; constant region B3 (G1d with K439E); Fc variant; also called B3 variant; copies: 2 + 2) heavy: not shown light: DIVMTQSPLSLPVTPGEPASISCQASESLVHSNRNTYLHWYLQKPGQSPQLLIYKVSNRFSGVPDRFSGSGSGTDFTLKISRVEAEDVGVYYCSQNTHVPPTFGQGTKVEIE | -1 % of GpH7-B3/GpL16-k0
2 | GpH7-B3/GpL16-k0 with P329K introduced into GpH7-B3 (antibody, human IgG1, Anti-glypican-3 human IgG1; constant region B3 (G1d with K439E); Fc variant; also called B3 variant; copies: 2 + 2) heavy: not shown light: DIVMTQSPLSLPVTPGEPASISCQASESLVHSNRNTYLHWYLQKPGQSPQLLIYKVSNRFSGVPDRFSGSGSGTDFTLKISRVEAEDVGVYYCSQNTHVPPTFGQGTKVEIE | -1 % of GpH7-B3/GpL16-k0
3 | GpH7-B3/GpL16-k0 with N325V introduced into GpH7-B3 (antibody, human IgG1, Anti-glypican-3 human IgG1; constant region B3 (G1d with K439E); Fc variant; also called B3 variant; copies: 2 + 2) heavy: not shown light: DIVMTQSPLSLPVTPGEPASISCQASESLVHSNRNTYLHWYLQKPGQSPQLLIYKVSNRFSGVPDRFSGSGSGTDFTLKISRVEAEDVGVYYCSQNTHVPPTFGQGTKVEIE | 2 % of GpH7-B3/GpL16-k0
4 | GpH7-B3/GpL16-k0 with N325T introduced into GpH7-B3 (antibody, human IgG1, Anti-glypican-3 human IgG1; constant region B3 (G1d with K439E); Fc variant; also called B3 variant; copies: 2 + 2) heavy: not shown light: DIVMTQSPLSLPVTPGEPASISCQASESLVHSNRNTYLHWYLQKPGQSPQLLIYKVSNRFSGVPDRFSGSGSGTDFTLKISRVEAEDVGVYYCSQNTHVPPTFGQGTKVEIE | 10 % of GpH7-B3/GpL16-k0
5 | GpH7-B3/GpL16-k0 with N325Y introduced into GpH7-B3 (antibody, human IgG1, Anti-glypican-3 human IgG1; constant region B3 (G1d with K439E); Fc variant; also called B3 variant; copies: 2 + 2) heavy: not shown light: DIVMTQSPLSLPVTPGEPASISCQASESLVHSNRNTYLHWYLQKPGQSPQLLIYKVSNRFSGVPDRFSGSGSGTDFTLKISRVEAEDVGVYYCSQNTHVPPTFGQGTKVEIE | 5 % of GpH7-B3/GpL16-k0
6 | GpH7-B3/GpL16-k0 with P329I introduced into GpH7-B3 (antibody, human IgG1, Anti-glypican-3 human IgG1; constant region B3 (G1d with K439E); Fc variant; also called B3 variant; copies: 2 + 2) heavy: not shown light: DIVMTQSPLSLPVTPGEPASISCQASESLVHSNRNTYLHWYLQKPGQSPQLLIYKVSNRFSGVPDRFSGSGSGTDFTLKISRVEAEDVGVYYCSQNTHVPPTFGQGTKVEIE | 2 % of GpH7-B3/GpL16-k0
7 | GpH7-B3/GpL16-k0 with N325W introduced into GpH7-B3 (antibody, human IgG1, Anti-glypican-3 human IgG1; constant region B3 (G1d with K439E); Fc variant; also called B3 variant; copies: 2 + 2) heavy: not shown light: DIVMTQSPLSLPVTPGEPASISCQASESLVHSNRNTYLHWYLQKPGQSPQLLIYKVSNRFSGVPDRFSGSGSGTDFTLKISRVEAEDVGVYYCSQNTHVPPTFGQGTKVEIE | -2 % of GpH7-B3/GpL16-k0
8 | GpH7-B3/GpL16-k0 with N325P introduced into GpH7-B3 (antibody, human IgG1, Anti-glypican-3 human IgG1; constant region B3 (G1d with K439E); Fc variant; also called B3 variant; copies: 2 + 2) heavy: not shown light: DIVMTQSPLSLPVTPGEPASISCQASESLVHSNRNTYLHWYLQKPGQSPQLLIYKVSNRFSGVPDRFSGSGSGTDFTLKISRVEAEDVGVYYCSQNTHVPPTFGQGTKVEIE | 0 % of GpH7-B3/GpL16-k0

Other lines, results leading:

Row | relative binding activity | Binder
9 | 74 % of GpH7-B3/GpL16-k0 | GpH7-B3/GpL16-k0 with S324K introduced into GpH7-B3 (antibody, human IgG1, Anti-glypican-3 human IgG1; constant region B3 (G1d with K439E); Fc variant; also called B3 variant; copies: 2 + 2) heavy: not shown light: DIVMTQSPLSLPVTPGEPASISCQASESLVHSNRNTYLHWYLQKPGQSPQLLIYKVSNRFSGVPDRFSGSGSGTDFTLKISRVEAEDVGVYYCSQNTHVPPTFGQGTKVEIE
10 | -1 % of GpH7-B3/GpL16-k0 | GpH7-B3/GpL16-k0 with P329Q introduced into GpH7-B3 (antibody, human IgG1, Anti-glypican-3 human IgG1; constant region B3 (G1d with K439E); Fc variant; also called B3 variant; copies: 2 + 2) heavy: not shown light: DIVMTQSPLSLPVTPGEPASISCQASESLVHSNRNTYLHWYLQKPGQSPQLLIYKVSNRFSGVPDRFSGSGSGTDFTLKISRVEAEDVGVYYCSQNTHVPPTFGQGTKVEIE
11 | 0 % of GpH7-B3/GpL16-k0 | GpH7-B3/GpL16-k0 with P329M introduced into GpH7-B3 (antibody, human IgG1, Anti-glypican-3 human IgG1; constant region B3 (G1d with K439E); Fc variant; also called B3 variant; copies: 2 + 2) heavy: not shown light: DIVMTQSPLSLPVTPGEPASISCQASESLVHSNRNTYLHWYLQKPGQSPQLLIYKVSNRFSGVPDRFSGSGSGTDFTLKISRVEAEDVGVYYCSQNTHVPPTFGQGTKVEIE
12 | 3 % of GpH7-B3/GpL16-k0 | GpH7-B3/GpL16-k0 with P329N introduced into GpH7-B3 (antibody, human IgG1, Anti-glypican-3 human IgG1; constant region B3 (G1d with K439E); Fc variant; also called B3 variant; copies: 2 + 2) heavy: not shown light: DIVMTQSPLSLPVTPGEPASISCQASESLVHSNRNTYLHWYLQKPGQSPQLLIYKVSNRFSGVPDRFSGSGSGTDFTLKISRVEAEDVGVYYCSQNTHVPPTFGQGTKVEIE
13 | -1 % of GpH7-B3/GpL16-k0 | GpH7-B3/GpL16-k0 with P329T introduced into GpH7-B3 (antibody, human IgG1, Anti-glypican-3 human IgG1; constant region B3 (G1d with K439E); Fc variant; also called B3 variant; copies: 2 + 2) heavy: not shown light: DIVMTQSPLSLPVTPGEPASISCQASESLVHSNRNTYLHWYLQKPGQSPQLLIYKVSNRFSGVPDRFSGSGSGTDFTLKISRVEAEDVGVYYCSQNTHVPPTFGQGTKVEIE
14 | 7 % of GpH7-B3/GpL16-k0 | GpH7-B3/GpL16-k0 with P329V introduced into GpH7-B3 (antibody, human IgG1, Anti-glypican-3 human IgG1; constant region B3 (G1d with K439E); Fc variant; also called B3 variant; copies: 2 + 2) heavy: not shown light: DIVMTQSPLSLPVTPGEPASISCQASESLVHSNRNTYLHWYLQKPGQSPQLLIYKVSNRFSGVPDRFSGSGSGTDFTLKISRVEAEDVGVYYCSQNTHVPPTFGQGTKVEIE
15 | 35 % of GpH7-B3/GpL16-k0 | GpH7-B3/GpL16-k0 with Y300K introduced into GpH7-B3 (antibody, human IgG1, Anti-glypican-3 human IgG1; constant region B3 (G1d with K439E); Fc variant; also called B3 variant; copies: 2 + 2) heavy: not shown light: DIVMTQSPLSLPVTPGEPASISCQASESLVHSNRNTYLHWYLQKPGQSPQLLIYKVSNRFSGVPDRFSGSGSGTDFTLKISRVEAEDVGVYYCSQNTHVPPTFGQGTKVEIE
16 | 0 % of GpH7-B3/GpL16-k0 | GpH7-B3/GpL16-k0 with P329L introduced into GpH7-B3 (antibody, human IgG1, Anti-glypican-3 human IgG1; constant region B3 (G1d with K439E); Fc variant; also called B3 variant; copies: 2 + 2) heavy: not shown light: DIVMTQSPLSLPVTPGEPASISCQASESLVHSNRNTYLHWYLQKPGQSPQLLIYKVSNRFSGVPDRFSGSGSGTDFTLKISRVEAEDVGVYYCSQNTHVPPTFGQGTKVEIE
17 | 35 % of GpH7-B3/GpL16-k0 | GpH7-B3/GpL16-k0 with S324P introduced into GpH7-B3 (antibody, human IgG1, Anti-glypican-3 human IgG1; constant region B3 (G1d with K439E); Fc variant; also called B3 variant; copies: 2 + 2) heavy: not shown light: DIVMTQSPLSLPVTPGEPASISCQASESLVHSNRNTYLHWYLQKPGQSPQLLIYKVSNRFSGVPDRFSGSGSGTDFTLKISRVEAEDVGVYYCSQNTHVPPTFGQGTKVEIE
